From the DeepSol protein solubility set

Experiment: soluble on expression in E. coli; label from the status in PepcDB or PDB records

Sequence	soluble on expression in E. coli
MKWRTRVTELLGITYPIIQGGLAYLAYADLAAAVSNAGGLGQITAMSLDGPEQLREEIRKVKEKTDRPFGVNFAIGQHGRPFAHMLEAALDEGVPVVSVTGGNPAPFFEQLKGTNVKKLVLVAAVRQAVKAEELGADAVMVVGQEGGGHLGKYDTGTFVLIPKVVDSVSIPVIASGGIADGRGLMAALALGAEGIEMGTRFIATKECVHAHPAYKEMILNATENDTVIIKRSLGAPGRVLANAWAEKILEIERQGGTYDDLKEYISGEANRRFIYEGKVDEGFAWAGQAIGLIHDVPSVAELFARMIEEAEQIRRRWAN	not soluble
YRRFEKEKLKSQWNNDNPLFKSATTTVMNPKFAES	soluble
MSTLPPCPQCNSEYTYEDGALLVCPECAHEWSPNEAATASDDGKVIKDSVGNVLQDGDTITVIKDLKVKGSSLVVKVGTKVKNIRLVDGDHDIDCKIDGIGAMKLKSEFVRKV	not soluble
MGSDKIHHHHHHMSDITHTGEHQALVVGATGIIGSAILHRLGAAEGWTAIGLSRSRRVAEGRARMLEVDLLDPQDCARKLGALNRITHIFYAAYQARPSRAEEVAPNVQMLRNVVDAVSGRARGLKKIVLITGAKFYGIQWGRVKTPMKETDARQLPPNFYYDQEDFLRDAQRQADWHWCNLIPPFVSGYSVGNPMNLVMAIGVFASLSRELNLPLRFPGLPGAWSALQQIADAEQIAAAAHWAATSPAANNEAFNVTNGDPIRWENFWPAVAGHFGMRLEAPKTLPLGRLMADNEAAWARMVERYRLQAASIAKLVDWNWADYMFRMEYDVLMETGKIRRAGFQDCVDTTERFLARFRQLQQQQIIPR	not soluble
MSLSKSLQKPTILNVETVARSRLFTVESVDLEFSNGVRRVYERMRPTNREAVMIVPIVDDHLILIREYAVGTESYELGFSKGLIDPGESVYEAANRELKEEVGFGANDLTFLKKLSMAPSYFSSKMNIVVAQDLYPESLEGDEPEPLPQVRWPLAHMMDLLEDPDFNEARNVSALFLVREWLKGQGRVEGGSHHHHHH	soluble
MMKKDYRTQVIEDLKKQDKAKKVLRDEQLLEELIQLEAYQKAHVIATYLAFPFEFDTSLLIEQAQRDNKSIVVPKTYPQGKMIFVVYDEADLQITKFGLKEPRSEEALEKSAIDLIHVPGLAFNNEGYRIGFGAGYYDQYLADFQGDTVSTIYSFQKFTFEPSFFDIPVKEVLVSGDLLEHHHHHH	soluble
MCHKLPKTHNCTFFRKLSNWHSGILISLEQKVTGSIPARETVQLAQWYFDFFGAEGHGFNPREGNCPTGAGVYLTSLEQKVTGSIPAWENNFCLIC	not soluble
MGSDKIHHHHHHMRHDKFAGPAYTIQIVSNALDMLELLAMRPANPSLGRLAGSLNLTRNKAYRLLSTLCERGLVEQDPETGTYAIGVAALELAQRLIRQAPVVNHAHPIMEELARKHDEAVYMTVLRGDDVVFLDMVDCERQVKATPLIGRRFPYFTNAAGKAIKALEGADPLNLLKKRGRKNNSLDVGSLLSELHEIRHKGVAVDCGGLGDGIVSVAVAVRDYAGKVVGAITMLVPSFRAVADRLESEIIPSLQEGADLLSMKLGHGPC	not soluble
AAPTAIEHMEPPFWWAGMQHKGLQLMVHGRDIGRMEAALDYPGVRLVSPTRVPNANYLFVDLEIGPEAQPGSFDIVFKGDGRSERYRYRLLAREQGSAQRQGFGPGDAIYQIMPDRFANGDPSNDNVAGMREQADRRHGGGRHGGDIRGTIDHLDYIAGLGFTQLWPTPLVENDAAAYSYHGYAATDHYRIDPRYGSNEDFVRLSTEARKRGMGLIQDVVLSHIGKHHWWMKDLPTPDWINYGGKFVPTQHHRVAVQDPYAAQADSENFTKGWFVEGMPDLNQTNPLVANYLIQNNIWWIEYAGLSGLRIDTYGYSDGAFLTEYTRRLMAEYPRLNMVGQEWSTRVPVVARWQRGKANFDGYTSHLPSLMDFPLVDAMRNALSKTGEENGLNEVYETLSLDYLYPEPQNLVLFGGNHDMARMFSAAGEDFDRWRMNLVFLMTMPRIPQFYSGDEILMTSTVKGRDDASYRRDFPGGWAGDKANAFSGAGLTSQQRAAQDLVRKLANWRKNQPVIHNGRLMHFGPEENTWVYFRYNKDKRIMVAMNNNDKPMTLPTARFQEMLKGAPSGVDFLSGKTVGLGRELRLAPKSVVVIELPGLPEA	soluble
MSGATPVFTEINQIQGTGDKSPLISSGFISDDEYFVQGVVTARGESLLKGFYLQGLNDDFDPNSSEGIFVSTGSAPSLEIQPGALVCVKAKVQEYYGQTQLKPDTNNFLVQGHQAPVSVTELTINENETLAQALERHEGMQVKLTSHSDLRITRNFSFDYASKRNNMVLSHGEPLFKPTQLFAAESPEAIQLAEENAKRQITIESDNKAPNGEVPYFPDFATDSNQDGSADSYLRLGARIEGLEGVIAYSYGQYRLVTTNTISQENIITQAFDEDGDTLFNVERTDEPSIDDADLTITSFNVLNYFTSVAAGGLEHHHHHH	not soluble
MTKPIVFQNARIIDPSRTIDEIGTVIVENGLIIAAGKEALNQGIPEGAEIINAQNKAILPGLVDARVFVGEPGNESRETLASASQSAAAGGITSFLMMPNTNPVIDNIALVKFITHTAQEISSVNIYPVAAITQGFNGQEIAEFGLLKDAGAVAFSEGKKTLQNSSVMRRAMTYARDFDVPLMHETQDKDLIGQGVMNEGLLASWLGLSGIPREAEVIPLERDLRLAALTQTRYHAAQISTALSADALRLSKQRSEKISAGVSINHLSFNENDIGEYRTSFRLIPPLRTEEDRIAMIEAIKDGTVDIIVSSHDPQSLDKKNLPFSEAAIGAIGMETLLSAALRLYHNGTISLLRLTELLSTTPAKLFDLNAGTLRKGTHADLILVDLDEPWIVSPEKLYSRSKNTPFEKAHFQGRVLQTFVKGQSIFKLDQ	not soluble
MEDPVFTFGLIADVQYADIEDGENYLRTRRRYYRGSADLLRDAVLQWRRERVQCVVQLGDIIDGHNRRRDASDRALDTVMAELDACSVDVHHVWGNHEFYNFSRPSLLSSRLNSAQRTGTDTGSDLIGDDIYAYEFSPAPNFRFVLLDAYDLSVIGREEESEKHTHSWRILTQHNHNLQDLNLPPVSVGLEQRFVKFNGGFSEQQLQWLDAVLTLSDHKQERVLIFSHLPVHPCAADPICLAWNHEAVLSVLRSHQSVLCFIAGHDHDGGRCTDSSGAQHITLEGVIETPPHSHAFATAYLYEDRMVMKGRGRVEDLTITYS	not soluble
MSDKDEGTERLVALLERLGVNRWAARSEADDAVVNARNLVPMFLLLREVWKHVVREGDTSWLQKDARLLAQEPEAGWSDMRRALASLQAKGATAQELTDVVKGKQVSLLYDVFETLCDDDPDLEAEFSGIGWGVFETDAVGRPGRRMDRLFAPVVTLDPTGRCMGPRE	not soluble
PLYLGLMSGTSIDGIDAALVRINANPITHCELIAAQTSAWDPNLRTTLLELSQGQNTASLDQLGWLDAQVGLAFATAANTLIAKTGIKHTQIRAIGSHGQTIRHRPHGDLPFTWQLGDAHRIAELTGITTVADFRRRDVAAGGQGAPLMPAFHLAILGSANENRAVLNLGGIANLTLIPMTGPVLGFDTGPANALLDSWYQRHHHETFDQSGNFAASGKINQKLLACLLDDPWFTLPPPKSTGREQFHLDWMTKQLEPTPPSPADVQATLLELTAVTVADALLRQQPKTTRLLICGGGAHNPVLMARLATHLPNVTVESIQTYGLNPDYLEAMGFAWLAAQTLDGQPSNLPSVTGARGLRLLGAIHPA	not soluble
